The text below walks through data of article PMC11685663.

The test deals with recombinant H5 hemagglutinin (rH5) ectodomain from A/Texas/37/2024 (H5N1, clade 2.3.4.4b) (influenza A virus A/Texas/37/2024 (H5N1)). In words: cryo-EM structure.

With “recombinant H5 hemagglutinin (rH5) ectodomain from A/Texas/37/2024 (H5N1, clade 2.3.4.4b) (natural protein)”, the stoichiometry N stood at 3.
